The target of assay [1] is Nup188 (Chaetomium thermophilum, UniProt G0SFH5 1-1858). Nature of the assay: SEC-MALS. (SEC sorts molecules by how far they enter the pores of the column.)
The target of assay [2] is Nup192 (Chaetomium thermophilum, UniProt G0S4T0 1-1756). The assay is described as follows: SEC-MALS.
Nup192, sequence (G0S4T0 whole entry): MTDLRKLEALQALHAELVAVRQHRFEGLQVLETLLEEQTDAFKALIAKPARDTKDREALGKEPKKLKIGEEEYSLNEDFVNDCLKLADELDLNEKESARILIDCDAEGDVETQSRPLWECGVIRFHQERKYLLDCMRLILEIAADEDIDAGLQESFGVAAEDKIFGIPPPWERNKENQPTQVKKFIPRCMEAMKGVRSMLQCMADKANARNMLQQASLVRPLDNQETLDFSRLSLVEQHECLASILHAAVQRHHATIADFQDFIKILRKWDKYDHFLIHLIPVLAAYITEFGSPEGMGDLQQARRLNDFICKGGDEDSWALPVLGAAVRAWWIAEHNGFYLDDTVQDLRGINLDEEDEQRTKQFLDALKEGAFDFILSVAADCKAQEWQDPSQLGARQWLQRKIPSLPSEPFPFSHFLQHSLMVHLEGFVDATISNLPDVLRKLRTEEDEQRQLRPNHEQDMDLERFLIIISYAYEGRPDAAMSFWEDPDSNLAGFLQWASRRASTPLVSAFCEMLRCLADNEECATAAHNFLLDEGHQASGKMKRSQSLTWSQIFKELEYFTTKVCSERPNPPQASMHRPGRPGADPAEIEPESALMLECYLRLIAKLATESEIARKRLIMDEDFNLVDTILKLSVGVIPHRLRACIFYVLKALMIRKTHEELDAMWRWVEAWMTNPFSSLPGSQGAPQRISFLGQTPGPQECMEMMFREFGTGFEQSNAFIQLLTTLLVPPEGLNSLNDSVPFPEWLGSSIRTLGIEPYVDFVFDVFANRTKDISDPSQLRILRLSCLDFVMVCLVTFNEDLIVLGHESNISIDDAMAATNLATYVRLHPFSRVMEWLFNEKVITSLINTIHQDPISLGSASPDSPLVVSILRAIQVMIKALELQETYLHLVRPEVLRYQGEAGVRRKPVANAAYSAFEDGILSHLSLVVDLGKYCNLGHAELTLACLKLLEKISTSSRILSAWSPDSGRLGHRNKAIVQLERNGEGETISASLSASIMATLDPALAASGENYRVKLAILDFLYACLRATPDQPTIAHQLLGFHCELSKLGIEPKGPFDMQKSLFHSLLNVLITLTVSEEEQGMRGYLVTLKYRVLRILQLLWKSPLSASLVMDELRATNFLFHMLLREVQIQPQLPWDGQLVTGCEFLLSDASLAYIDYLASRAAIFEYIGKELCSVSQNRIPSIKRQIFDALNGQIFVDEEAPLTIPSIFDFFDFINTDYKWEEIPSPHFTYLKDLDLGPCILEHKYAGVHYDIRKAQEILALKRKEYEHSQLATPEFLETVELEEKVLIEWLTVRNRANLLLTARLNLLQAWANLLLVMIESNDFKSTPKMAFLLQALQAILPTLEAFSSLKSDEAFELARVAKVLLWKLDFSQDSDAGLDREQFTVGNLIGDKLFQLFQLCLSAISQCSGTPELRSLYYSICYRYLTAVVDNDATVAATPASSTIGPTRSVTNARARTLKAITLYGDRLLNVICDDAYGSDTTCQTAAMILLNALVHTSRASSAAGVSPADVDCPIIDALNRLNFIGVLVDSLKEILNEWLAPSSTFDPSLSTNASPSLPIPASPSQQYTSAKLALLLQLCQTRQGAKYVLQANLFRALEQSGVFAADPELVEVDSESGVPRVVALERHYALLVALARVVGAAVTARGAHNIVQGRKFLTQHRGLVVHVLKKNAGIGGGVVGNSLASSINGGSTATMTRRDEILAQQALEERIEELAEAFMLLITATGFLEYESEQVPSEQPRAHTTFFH

Nup188, sequence (G0SFH5 whole entry): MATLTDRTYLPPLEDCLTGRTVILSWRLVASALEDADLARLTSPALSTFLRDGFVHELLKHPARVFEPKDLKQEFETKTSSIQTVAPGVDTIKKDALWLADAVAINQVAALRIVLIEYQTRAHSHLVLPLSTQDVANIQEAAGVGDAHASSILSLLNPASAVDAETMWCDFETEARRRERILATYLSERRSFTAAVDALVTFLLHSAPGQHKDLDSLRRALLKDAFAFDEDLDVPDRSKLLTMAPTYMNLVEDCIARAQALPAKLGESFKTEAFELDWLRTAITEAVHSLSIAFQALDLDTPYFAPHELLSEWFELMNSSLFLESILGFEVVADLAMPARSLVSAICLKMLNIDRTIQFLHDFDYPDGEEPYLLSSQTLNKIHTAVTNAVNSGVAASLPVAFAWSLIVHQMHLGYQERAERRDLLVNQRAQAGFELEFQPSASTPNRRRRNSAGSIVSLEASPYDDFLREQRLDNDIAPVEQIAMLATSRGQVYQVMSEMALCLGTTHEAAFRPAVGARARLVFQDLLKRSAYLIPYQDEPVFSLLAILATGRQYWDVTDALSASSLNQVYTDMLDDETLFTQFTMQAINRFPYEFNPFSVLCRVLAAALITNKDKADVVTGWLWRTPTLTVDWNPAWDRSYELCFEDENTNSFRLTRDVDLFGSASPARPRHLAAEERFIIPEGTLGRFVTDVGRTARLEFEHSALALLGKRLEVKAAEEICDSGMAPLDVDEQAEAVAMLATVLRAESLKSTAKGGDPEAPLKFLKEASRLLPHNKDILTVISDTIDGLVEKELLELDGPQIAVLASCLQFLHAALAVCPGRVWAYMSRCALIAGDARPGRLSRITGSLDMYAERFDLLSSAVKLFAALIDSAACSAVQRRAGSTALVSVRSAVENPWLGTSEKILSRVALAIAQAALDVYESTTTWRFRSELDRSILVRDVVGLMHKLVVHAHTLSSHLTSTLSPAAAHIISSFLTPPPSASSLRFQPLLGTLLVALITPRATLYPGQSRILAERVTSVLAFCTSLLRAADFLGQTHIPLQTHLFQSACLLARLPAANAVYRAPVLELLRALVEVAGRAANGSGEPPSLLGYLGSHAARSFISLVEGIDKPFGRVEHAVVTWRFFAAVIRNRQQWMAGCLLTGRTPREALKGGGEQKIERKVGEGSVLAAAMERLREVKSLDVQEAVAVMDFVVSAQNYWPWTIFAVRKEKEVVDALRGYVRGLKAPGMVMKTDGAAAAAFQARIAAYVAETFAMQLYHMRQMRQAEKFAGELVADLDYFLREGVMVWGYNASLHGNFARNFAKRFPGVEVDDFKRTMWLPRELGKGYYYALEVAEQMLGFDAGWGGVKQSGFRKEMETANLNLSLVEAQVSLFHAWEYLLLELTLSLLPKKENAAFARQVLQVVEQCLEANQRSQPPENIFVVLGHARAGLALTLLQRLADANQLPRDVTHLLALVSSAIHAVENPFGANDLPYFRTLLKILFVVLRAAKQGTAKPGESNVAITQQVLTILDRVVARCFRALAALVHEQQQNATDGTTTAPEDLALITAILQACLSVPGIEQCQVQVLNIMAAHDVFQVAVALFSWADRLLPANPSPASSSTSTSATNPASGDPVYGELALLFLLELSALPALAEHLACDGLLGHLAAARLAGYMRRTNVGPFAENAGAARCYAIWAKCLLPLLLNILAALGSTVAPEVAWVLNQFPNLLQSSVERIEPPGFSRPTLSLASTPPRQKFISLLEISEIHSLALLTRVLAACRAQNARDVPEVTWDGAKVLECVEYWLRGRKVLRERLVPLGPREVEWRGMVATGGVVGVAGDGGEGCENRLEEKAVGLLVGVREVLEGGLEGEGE

In the case of DFDAFLEENVTLEWEAQRKRIYQHFGIK (peptide, UniProt G0S024 274-301, looked up) [Nic96 fragment (residues 274–301)], the binding result in assay [1] is listed as “binds”.

B1: Nup145N fragment (residues 606–750) (domain or fragment, Chaetomium thermophilum, UniProt G0SAK3 606-750, looked up)
chain: DDKIQNPGPLATPLSGKAKVKSRSILPMYKLSPANASRLVTTPQKRAYGFSFSAYGSPTSPSSSASSTPGAFGQSILSSSINRGLNKSISASNLRRSLNVEDSILQPGAFSANSSMRLLGGPGSHKKLVINKDMRTDLFSPPNKD
As to B1, in assay [1], the binding result was “binds”.

B2: Nup145N fragment (residues 606–683) (domain or fragment, Chaetomium thermophilum, UniProt G0SAK3 606-683, looked up)
chain: DDKIQNPGPLATPLSGKAKVKSRSILPMYKLSPANASRLVTTPQKRAYGFSFSAYGSPTSPSSSASSTPGAFGQSILS
On to B2, for which the binding result in assay [2] is “binds”.
With EWEAQRKRIYQHFGIK (peptide, UniProt G0S024 286-301, looked up) [Nic96 fragment (residues 286–301)], in assay [2], the binding result was “binds”.

(Values after publication PMC5207208 (Science (New York, N.Y.), 2016).)
